± gives the uncertainty stated by the source.
B1: Zinc finger homeobox protein 4, residues 2183 to 2238; numbered along this chain, Q86UP3 (parent)
chain: SSRTRFTDYQLRVLQDFFDTNAYPKDDEIEQLSTVLNLPTRVIVVWFQNARQKARK

Variants of: B1
Assay: abundance fitness (aPCA) (normalised: wild type 0, dead -1); higher = more abundant; growth selection in yeast, the domain comes from the species named
Conditions: Homo sapiens

Which abundance fitness does the source give for SSRTRFTDYQLRVLQDFFDTNAYPKDDEIEQLSTVLNLPTRVIVVWFQNARQKAGK [R55G] here?
Its abundance fitness is -0.048 ± 0.092.

For SSRTRFTDYQLRVLQDFFDTNAYPKDDEIEQLSTVLNLPTRVIVVWFQNARQKAHK [R55H], which abundance fitness is on record?
Its abundance fitness is 0.187 ± 0.18.

For SSRTRFTDYQLRVLQDFFDTNAYPKDDEIEQLSTVLNLPTRVIVVWFQNARQKAIK [R55I], which abundance fitness is on record?
Its abundance fitness is 0.307 ± 0.23.

For SSRTRFTDYQLRVLQDFFDTNAYPKDDEIEQLSTVLNLPTRVIVVWFQNARQKADK [R55D], which abundance fitness is on record?
The abundance fitness was -0.041 ± 0.21.

For SSRTRFTDYQLRVLQDFFDTNAYPKDDEIEQLSTVLNLPTRVIVVWFQNARQKAAK [R55A], which abundance fitness is on record?
Its abundance fitness is -0.111 ± 0.13.

With SSRTRFTDYQLRVLQDFFDTNAYPKDDEIEQLSTVLNLPTRVIVVWFQNARQKAFK [R55F] as the variant, how does the abundance fitness read?
The abundance fitness was -0.369 ± 0.27.

With SSRTRFTDYQLRVLQDFFDTNAYPKDDEIEQLSTVLNLPTRVIVVWFQNARQKAMK [R55M] as the variant, how does the abundance fitness read?
Its abundance fitness is 0.154 ± 0.3.

Which abundance fitness does the source give for SSRTRFTDYQLRVLQDFFDTNAYPKDDEIEQLSTVLNLPTRVIVVWFQNARQKALK [R55L] here?
The abundance fitness was 0.223 ± 0.13.

For SSRTRFTDYQLRVLQDFFDTNAYPKDDEIEQLSTVLNLPTRVIVVWFQNARQKAEK [R55E], which abundance fitness is on record?
Its abundance fitness is -0.129 ± 0.19.

For SSRTRFTDYQLRVLQDFFDTNAYPKDDEIEQLSTVLNLPTRVIVVWFQNARQKAPK [R55P], which abundance fitness is on record?
The abundance fitness was -0.113 ± 0.15.

For SSRTRFTDYQLRVLQDFFDTNAYPKDDEIEQLSTVLNLPTRVIVVWFQNARQKAQK [R55Q], which abundance fitness is on record?
The abundance fitness was -0.1 ± 0.34.

With SSRTRFTDYQLRVLQDFFDTNAYPKDDEIEQLSTVLNLPTRVIVVWFQNARQKACK [R55C] as the variant, how does the abundance fitness read?
Its abundance fitness is -0.104 ± 0.22.

With SSRTRFTDYQLRVLQDFFDTNAYPKDDEIEQLSTVLNLPTRVIVVWFQNARQKTRK [A54T] as the variant, how does the abundance fitness read?
Its abundance fitness is -0.1 ± 0.097.

For SSRTRFTDYQLRVLQDFFDTNAYPKDDEIEQLSTVLNLPTRVIVVWFQNARQKPRK [A54P], which abundance fitness is on record?
The abundance fitness was -0.073 ± 0.088.

For SSRTRFTDYQLRVLQDFFDTNAYPKDDEIEQLSTVLNLPTRVIVVWFQNARQKHRK [A54H], which abundance fitness is on record?
Its abundance fitness is -0.039 ± 0.094.

For SSRTRFTDYQLRVLQDFFDTNAYPKDDEIEQLSTVLNLPTRVIVVWFQNARQKCRK [A54C], which abundance fitness is on record?
The abundance fitness was 0.062 ± 0.17.

Which abundance fitness does the source give for SSRTRFTDYQLRVLQDFFDTNAYPKDDEIEQLSTVLNLPTRVIVVWFQNARQKMRK [A54M] here?
Its abundance fitness is -0.013 ± 0.2.

Which abundance fitness does the source give for SSRTRFTDYQLRVLQDFFDTNAYPKDDEIEQLSTVLNLPTRVIVVWFQNARQKDRK [A54D] here?
The abundance fitness was -0.068 ± 0.12.

With SSRTRFTDYQLRVLQDFFDTNAYPKDDEIEQLSTVLNLPTRVIVVWFQNARQKLRK [A54L] as the variant, how does the abundance fitness read?
Its abundance fitness is -0.079 ± 0.093.

With SSRTRFTDYQLRVLQDFFDTNAYPKDDEIEQLSTVLNLPTRVIVVWFQNARQKNRK [A54N] as the variant, how does the abundance fitness read?
Its abundance fitness is 0.081 ± 0.12.

For SSRTRFTDYQLRVLQDFFDTNAYPKDDEIEQLSTVLNLPTRVIVVWFQNARQKFRK [A54F], which abundance fitness is on record?
The abundance fitness was -0.06 ± 0.12.

With SSRTRFTDYQLRVLQDFFDTNAYPKDDEIEQLSTVLNLPTRVIVVWFQNARQKRRK [A54R] as the variant, how does the abundance fitness read?
Its abundance fitness is -0.179 ± 0.1.

With SSRTRFTDYQLRVLQDFFDTNAYPKDDEIEQLSTVLNLPTRVIVVWFQNARQKVRK [A54V] as the variant, how does the abundance fitness read?
Its abundance fitness is -0.053 ± 0.1.

For SSRTRFTDYQLRVLQDFFDTNAYPKDDEIEQLSTVLNLPTRVIVVWFQNARQKQRK [A54Q], which abundance fitness is on record?
The abundance fitness was 0.01 ± 0.17.

With SSRTRFTDYQLRVLQDFFDTNAYPKDDEIEQLSTVLNLPTRVIVVWFQNARQKYRK [A54Y] as the variant, how does the abundance fitness read?
The abundance fitness was -0.277 ± 0.15.

Which abundance fitness does the source give for SSRTRFTDYQLRVLQDFFDTNAYPKDDEIEQLSTVLNLPTRVIVVWFQNARQKKRK [A54K] here?
The abundance fitness was -0.232 ± 0.23.

For SSRTRFTDYQLRVLQDFFDTNAYPKDDEIEQLSTVLNLPTRVIVVWFQNARQKGRK [A54G], which abundance fitness is on record?
The abundance fitness was -0.06 ± 0.12.

With SSRTRFTDYQLRVLQDFFDTNAYPKDDEIEQLSTVLNLPTRVIVVWFQNARQKERK [A54E] as the variant, how does the abundance fitness read?
Its abundance fitness is -0.013 ± 0.23.

For SSRTRFTDYQLRVLQDFFDTNAYPKDDEIEQLSTVLNLPTRVIVVWFQNARQKIRK [A54I], which abundance fitness is on record?
Its abundance fitness is -0.096 ± 0.13.

Which abundance fitness does the source give for SSRTRFTDYQLRVLQDFFDTNAYPKDDEIEQLSTVLNLPTRVIVVWFQNARQKWRK [A54W] here?
The abundance fitness was -0.211 ± 0.18.

With SSRTRFTDYQLRVLQDFFDTNAYPKDDEIEQLSTVLNLPTRVIVVWFQNARQFARK [K53F] as the variant, how does the abundance fitness read?
The abundance fitness was 0.036 ± 0.15.

For SSRTRFTDYQLRVLQDFFDTNAYPKDDEIEQLSTVLNLPTRVIVVWFQNARQCARK [K53C], which abundance fitness is on record?
Its abundance fitness is 0.11 ± 0.13.

With SSRTRFTDYQLRVLQDFFDTNAYPKDDEIEQLSTVLNLPTRVIVVWFQNARQTARK [K53T] as the variant, how does the abundance fitness read?
The abundance fitness was 0.028 ± 0.12.

Which abundance fitness does the source give for SSRTRFTDYQLRVLQDFFDTNAYPKDDEIEQLSTVLNLPTRVIVVWFQNARQEARK [K53E] here?
Its abundance fitness is 0.262 ± 0.11.

With SSRTRFTDYQLRVLQDFFDTNAYPKDDEIEQLSTVLNLPTRVIVVWFQNARQHARK [K53H] as the variant, how does the abundance fitness read?
The abundance fitness was 0.126 ± 0.17.

Which abundance fitness does the source give for SSRTRFTDYQLRVLQDFFDTNAYPKDDEIEQLSTVLNLPTRVIVVWFQNARQMARK [K53M] here?
The abundance fitness was 0.119 ± 0.15.

For SSRTRFTDYQLRVLQDFFDTNAYPKDDEIEQLSTVLNLPTRVIVVWFQNARQPARK [K53P], which abundance fitness is on record?
The abundance fitness was -0.054 ± 0.12.

With SSRTRFTDYQLRVLQDFFDTNAYPKDDEIEQLSTVLNLPTRVIVVWFQNARQGARK [K53G] as the variant, how does the abundance fitness read?
The abundance fitness was 0.023 ± 0.073.

With SSRTRFTDYQLRVLQDFFDTNAYPKDDEIEQLSTVLNLPTRVIVVWFQNARQSARK [K53S] as the variant, how does the abundance fitness read?
Its abundance fitness is -0.06 ± 0.095.

Which abundance fitness does the source give for SSRTRFTDYQLRVLQDFFDTNAYPKDDEIEQLSTVLNLPTRVIVVWFQNARQLARK [K53L] here?
Its abundance fitness is 0.144 ± 0.085.

With SSRTRFTDYQLRVLQDFFDTNAYPKDDEIEQLSTVLNLPTRVIVVWFQNARQYARK [K53Y] as the variant, how does the abundance fitness read?
The abundance fitness was -0.223 ± 0.19.

For SSRTRFTDYQLRVLQDFFDTNAYPKDDEIEQLSTVLNLPTRVIVVWFQNARQDARK [K53D], which abundance fitness is on record?
Its abundance fitness is 0.109 ± 0.16.

With SSRTRFTDYQLRVLQDFFDTNAYPKDDEIEQLSTVLNLPTRVIVVWFQNARQIARK [K53I] as the variant, how does the abundance fitness read?
Its abundance fitness is -0.124 ± 0.16.

For SSRTRFTDYQLRVLQDFFDTNAYPKDDEIEQLSTVLNLPTRVIVVWFQNARQWARK [K53W], which abundance fitness is on record?
Its abundance fitness is -0.178 ± 0.1.

For SSRTRFTDYQLRVLQDFFDTNAYPKDDEIEQLSTVLNLPTRVIVVWFQNARQQARK [K53Q], which abundance fitness is on record?
The abundance fitness was -0.155 ± 0.11.

With SSRTRFTDYQLRVLQDFFDTNAYPKDDEIEQLSTVLNLPTRVIVVWFQNARQRARK [K53R] as the variant, how does the abundance fitness read?
Its abundance fitness is -0.137 ± 0.079.

With SSRTRFTDYQLRVLQDFFDTNAYPKDDEIEQLSTVLNLPTRVIVVWFQNARQAARK [K53A] as the variant, how does the abundance fitness read?
Its abundance fitness is 0.145 ± 0.099.

— the Human Domainome abundance scans (Beltran et al. 2025)
